In paper PMC7878818 (2021):
Ends that are not written are not given here. Me3 = trimethyl group on lysine (trimethyl-lysine); Me2 = dimethyl group on lysine (dimethyl-lysine)

Legend:
Experiment in all cases: ITC
[1] = molecular target: Spindlin1/C11orf84 complex (human, UniProt Q9Y657 50-262; Q9BUA3 1-381)
[2] = molecular target: Spindlin1 Y91A/C11orf84 complex (human, UniProt Q9Y657 50-262; Q9BUA3 1-381, Y91A)
[3] = molecular target: Spindlin1 W62A/C11orf84 complex (human, UniProt Q9Y657 50-262; Q9BUA3 1-381, W62A)
Spindlin1 W62A/C11orf84 complex, sequence (Q9Y657 50-262 W62A, chain 1 of 2): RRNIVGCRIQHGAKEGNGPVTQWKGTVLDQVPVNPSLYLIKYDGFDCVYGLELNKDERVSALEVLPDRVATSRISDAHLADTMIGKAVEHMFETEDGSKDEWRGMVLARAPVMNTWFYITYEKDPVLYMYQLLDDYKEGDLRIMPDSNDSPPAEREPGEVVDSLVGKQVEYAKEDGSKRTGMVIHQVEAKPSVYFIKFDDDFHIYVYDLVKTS
Spindlin1 W62A/C11orf84 complex, sequence (Q9BUA3 whole entry, chain 2 of 2): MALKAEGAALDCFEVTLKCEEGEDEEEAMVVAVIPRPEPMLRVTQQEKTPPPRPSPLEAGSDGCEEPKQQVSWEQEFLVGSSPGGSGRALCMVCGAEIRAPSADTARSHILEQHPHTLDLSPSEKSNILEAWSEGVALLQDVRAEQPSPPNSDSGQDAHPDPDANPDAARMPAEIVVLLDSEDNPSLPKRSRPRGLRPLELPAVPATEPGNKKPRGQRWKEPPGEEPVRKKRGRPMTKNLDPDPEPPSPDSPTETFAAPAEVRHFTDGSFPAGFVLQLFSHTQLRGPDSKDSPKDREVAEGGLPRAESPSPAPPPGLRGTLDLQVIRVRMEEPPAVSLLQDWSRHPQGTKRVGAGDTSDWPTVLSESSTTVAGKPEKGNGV

[4] = molecular target: Spindlin1 W72A/C11orf84 complex (human, UniProt Q9Y657 50-262; Q9BUA3 1-381, W72A)
Spindlin1 W72A/C11orf84 complex, sequence (Q9Y657 50-262 W72A, chain 1 of 2): as the sequence (Q9Y657 50-262 W62A, chain 1 of 2) above, with A13W, W23A counted along it
Spindlin1 W72A/C11orf84 complex, sequence (Q9BUA3 whole entry, chain 2 of 2): as the sequence (Q9BUA3 whole entry, chain 2 of 2) above

[5] = molecular target: Spindlin1 D173A/C11orf84 complex (human, UniProt Q9Y657 50-262; Q9BUA3 1-381, D173A)
Spindlin1 D173A/C11orf84 complex, sequence (Q9Y657 50-262 D173A, chain 1 of 2): as the sequence (Q9Y657 50-262 W62A, chain 1 of 2) above, with A13W, D124A counted along it
Spindlin1 D173A/C11orf84 complex, sequence (Q9BUA3 219-305, chain 2 of 2): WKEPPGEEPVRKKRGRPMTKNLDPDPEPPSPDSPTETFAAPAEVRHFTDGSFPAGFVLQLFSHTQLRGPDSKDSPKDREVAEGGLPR

[6] = molecular target: Spindlin1 F141A/C11orf84 complex (human, UniProt Q9Y657 50-262; Q9BUA3 1-381, F141A)
Spindlin1 F141A/C11orf84 complex, sequence (Q9Y657 50-262 F141A, chain 1 of 2): as the sequence (Q9Y657 50-262 W62A, chain 1 of 2) above, with A13W, F92A counted along it
Spindlin1 F141A/C11orf84 complex, sequence (Q9BUA3 whole entry, chain 2 of 2): as the sequence (Q9BUA3 whole entry, chain 2 of 2) above

[7] = molecular target: Spindlin1 W62A/W72A/C11orf84 complex (human, UniProt Q9Y657 50-262; Q9BUA3 1-381, W62A | W72A)
Spindlin1 W62A/W72A/C11orf84 complex, sequence (Q9Y657 50-262 W62A/W72A, chain 1 of 2): as the sequence (Q9Y657 50-262 W62A, chain 1 of 2) above, with W23A counted along it
Spindlin1 W62A/W72A/C11orf84 complex, sequence (Q9BUA3 whole entry, chain 2 of 2): as the sequence (Q9BUA3 whole entry, chain 2 of 2) above

[8] = molecular target: Spindlin1 Y98A/C11orf84 complex (human, UniProt Q9Y657 50-262; Q9BUA3 1-381, Y98A)
Spindlin1 Y98A/C11orf84 complex, sequence (Q9Y657 50-262 Y98A, chain 1 of 2): as the sequence (Q9Y657 50-262 W62A, chain 1 of 2) above, with A13W, Y49A counted along it
Spindlin1 Y98A/C11orf84 complex, sequence (Q9BUA3 whole entry, chain 2 of 2): as the sequence (Q9BUA3 whole entry, chain 2 of 2) above

Spindlin1/C11orf84 complex, sequence (Q9Y657 50-262, chain 1 of 2): as the sequence (Q9Y657 50-262 W62A, chain 1 of 2) above, with A13W counted along it
Spindlin1/C11orf84 complex, sequence (Q9BUA3 219-305, chain 2 of 2): as the sequence (Q9BUA3 219-305, chain 2 of 2) above
Spindlin1 Y91A/C11orf84 complex, sequence (Q9Y657 50-262 Y91A, chain 1 of 2): as the sequence (Q9Y657 50-262 W62A, chain 1 of 2) above, with A13W, Y42A counted along it
Spindlin1 Y91A/C11orf84 complex, sequence (Q9BUA3 whole entry, chain 2 of 2): as the sequence (Q9BUA3 whole entry, chain 2 of 2) above

B1: H3K4me3K9me2 peptide (peptide)
chain: ARTK(Me3)QTARK(Me2)STG
- Kd [1]: 42 nM

B2: H3K9me3 peptide (peptide)
chain: ARTKQTARKSTG
modifications: K9me3
- Kd [1]: 2880 nM

B3: H3K4me3K9me3 peptide (peptide)
chain: ARTK(Me3)QTARK(Me3)STG
- Kd [2]: 59 nM
- Kd [3]: 71 nM
- Kd [4]: 77 nM
- Kd [5]: 57 nM
- Kd [6]: 869 nM
- Kd [7]: 199 nM
- Kd [8]: 80 nM

B4: H3K4me3R8me2a peptide (peptide)
chain: ARTK(Me3)QTAR(asymmetric Me2)KSTG
- Kd [1]: 82 nM

B5: H3K4me3 peptide (peptide)
chain: ARTK(Me3)QTARKSTG
- Kd [1]: 213 nM
